Test results from patent publication US11814447B2, “Peptide ligands for binding to EphA2” (BICYCLERD LIMITED, priority 2018, dated 2023).
Starred links: 1 amine or outer side, 2 acyl side, 3 side chain; linkers in the order of their positions; H or OH if unused. Positions of bridges follow the written chain, without caps; N, C: chain ends. Non-standard residues stand in square brackets, D forms with d. No end group written: not given here. ThiAz = 3-(1,2,4-triazol-1-yl)-alanine, O=C([C@H](Cn1cncn1)N[*:1])[*:2]; TATA = O=C(CC[*:1])N1CN(C(=O)CC[*:2])CN(C(=O)CC[*:3])C1; Ala(2-furyl) = N[C@@H](Cc1ccco1)C(=O)O; 1Nal = N[C@@H](Cc1cccc2ccccc12)C(=O)O; TBMB = c1c(C[*:1])cc(C[*:3])cc1C[*:2]; hArg = N=C(N)NCCCC[C@H](N)C(=O)O; 2Thi = N[C@@H](Cc1cccs1)C(=O)O; Tle = CC(C)(C)[C@H](N)C(=O)O; Pip = O=C(O)[C@@H]1CCCCN1; Aze = O=C(O)[C@@H]1CCN1; Aib = CC(C)(N)C(=O)O; azaGly = NNC(=O)O; βAla = NCCC(=O)O; Sar = CNCC(=O)O

The binders below were run against T1, Human EphA2 (Ecto) (Human, UniProt P29317 24-537) (assay: FP competition, tracer Compound 18).
T1 construct: extracellular domain
Description: (§1) Peptides without a fluorescent tag were tested in competition with a peptide with a fluorescent tag and a known Kd (Table 2). Peptides were diluted to an appropriate concentration in assay buffer as described in the direct binding assay with a maximum of 5% DMSO, then serially diluted 1 in 2. […] Measurements were conducted as for the direct binding assay, however the gain was determined prior to the first measurement. Data analysis was in Systat Sigmaplot version 12.0 where the mP values were fit to a user defined cubic equation to generate a Ki value: […]
T1 sequence (P29317 24-537): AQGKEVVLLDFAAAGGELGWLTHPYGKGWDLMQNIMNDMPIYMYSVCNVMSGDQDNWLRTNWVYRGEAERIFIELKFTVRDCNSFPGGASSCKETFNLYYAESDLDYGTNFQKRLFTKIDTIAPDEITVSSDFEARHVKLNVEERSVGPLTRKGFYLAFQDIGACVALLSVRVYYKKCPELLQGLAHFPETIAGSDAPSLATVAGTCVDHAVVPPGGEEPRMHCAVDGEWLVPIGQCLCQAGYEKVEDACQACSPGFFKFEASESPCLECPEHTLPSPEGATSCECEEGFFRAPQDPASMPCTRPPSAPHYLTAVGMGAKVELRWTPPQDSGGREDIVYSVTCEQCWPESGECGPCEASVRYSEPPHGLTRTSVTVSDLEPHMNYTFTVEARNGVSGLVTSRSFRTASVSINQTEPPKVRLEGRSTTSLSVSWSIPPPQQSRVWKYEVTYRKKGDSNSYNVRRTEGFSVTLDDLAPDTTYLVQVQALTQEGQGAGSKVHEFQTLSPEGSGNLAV

Row | Binder | Ki [nM]
1 | Ac-[Sar][Sar]AH[dD][Tle]PCPWGPFWCPVNRPGC (linker 8-15-22 via TBMB) [Bicycle Compound 211] | 3.1
2 | Ac-[Sar][Sar]H[dD]VPCPW[azaGly]PFWCPVNRPGC (linker 7-14-21 via TBMB) [Bicycle Compound 267] | 0.66
3 | Ac-[Sar][Sar]AH[dD]VPCP[1Nal]GPFWCP[Tle]N[hArg]PGC (linker 8-15-22 via TBMB) [Bicycle Compound 227] | 0.75
4 | [Sar][Sar]A[Ala(2-furyl)]DVPCPWGPFWCPVNRPGC (linker 8-15-22 via TBMB) [Bicycle Compound 203] | 0.49
5 | Ac-[Sar][Sar]A[dH]D[Tle]PCPWGPFWCPVNRPGC (linker 8-15-22 via TBMB) [Bicycle Compound 204] | 2.15
6 | [Sar][Sar]A[2Thi]DVPCPWGPFWCPVNRPGC (linker 8-15-22 via TBMB) [Bicycle Compound 201] | 0.6
7 | Ac-[Sar][Sar]A[dH]DVPCPWGPFWCPVNRPGC (linker 8-15-22 via TBMB) [Bicycle Compound 196] | 0.95
8 | Ac-[Sar][Sar]A[dD]DVTCP[1Nal]GPF[1Nal]CPVNRPGC (linker 8-15-22 via TBMB) [Bicycle Compound 283] | 0.28
9 | Ac-[Sar][Sar]A[dD]DVTCP[1Nal]G[Aib]FWCP[Tle]N[hArg]PGC (linker 8-15-22 via TBMB) [Bicycle Compound 284] | 3.8
10 | Ac-[Sar][Sar][dA]HDVPCPWGPFWCPVNRPGC (linker 8-15-22 via TBMB) [Bicycle Compound 194] | 1.2
11 | Ac-[Sar][Sar]AH[dD]VPCPWGPFWCPVNRPGC (linker 8-15-22 via TBMB) [Bicycle Compound 210] | 1.1
12 | [βAla][Sar][Sar][Sar][Sar][Sar][Sar][Sar][Sar][Sar][Sar]H[dD]VPCPWGPFWCPVNRPGC (linker 16-23-30 via TBMB) [Bicycle Compound 226] | 0.84
13 | [Sar][Sar]AHDV[Pip]CPWGPFWCPVNRPGC (linker 8-15-22 via TBMB) [Bicycle Compound 222] | 3.4
14 | [Sar][Sar]AHDV[Aze]CPWGPFWCPVNRPGC (linker 8-15-22 via TBMB) [Bicycle Compound 221] | 3.1
15 | [βAla][Sar][Sar][Sar][Sar][Sar][Sar][Sar][Sar][Sar][Sar]HDVPCPWGPFWCPVNRPGC (linker 16-23-30 via TBMB) [Bicycle Compound 223] | 1.29
16 | Ac-[Sar][Sar]AH[dD]V[Sar]CPWGPFWCPVNRPGC (linker 8-15-22 via TBMB) [Bicycle Compound 212] | 4.95
17 | Ac-[Sar][Sar]A[dH]DVPCP[1Nal]GPFWCP[Tle]N[hArg]PGC (linker 8-15-22 via TBMB) [Bicycle Compound 230] | 1.8
18 | [Sar][Sar]AHD[Tle]PCPWGPFWCPVNRPGC (linker 8-15-22 via TBMB) [Bicycle Compound 217] | 0.49
19 | [Sar][Sar]A[dH]DVPCPWGPFWCPVNRPGC (linker 8-15-22 via TBMB) [Bicycle Compound 197] | 1.2
20 | Ac-[Sar][Sar]A[dH]DVPCPWG[Aib]FWCP[Tle]NR[Aib]GC (linker 8-15-22 via TBMB) [Bicycle Compound 233] | 4.8
21 | [Sar][Sar]AHD[Aib]PCPWGPFWCPVNRPGC (linker 8-15-22 via TBMB) [Bicycle Compound 216] | 2.77
22 | [Sar][Sar]AHDV[Aib]CPWGPFWCPVNRPGC (linker 8-15-22 via TBMB) [Bicycle Compound 220] | 0.83
23 | [Sar][Sar]A[ThiAz]DVPCPWGPFWCPVNRPGC (linker 8-15-22 via TBMB) [Bicycle Compound 202] | 0.7
24 | Ac-[Sar][Sar]A[dD]DVTCP[1Nal]GPFWCPVNRPGC (linker 8-15-22 via TBMB) [Bicycle Compound 282] | 0.87
25 | [Sar][Sar]AH[dD]VPCPWGPFWCPVNRPGC (linker 8-15-22 via TBMB) [Bicycle Compound 209] | 1.25
26 | Ac-[Sar][Sar]A[dH]DVPCPWGPAWCPVNRPGC (linker 8-15-22 via TBMB; also: A13 (ΨAla): reduced amide backbone bond) [Bicycle Compound 228] | 210
27 | Ac-[Sar][Sar]A[dD]DVTCPWGPFWCPVNRPGC (linker 8-15-22 via TBMB) [Bicycle Compound 281] | 5.78
28 | Ac-[Sar][Sar]AH[dD]V[Aib]CPWGPFWCPVNRPGC (linker 8-15-22 via TBMB) [Bicycle Compound 213] | 1.9

The binders below were run against T2, Human EphA2 (Ecto) (Human, UniProt P29317 24-537) (assay: FP competition; tracer Reference Compound C).
T2 construct: extracellular domain; in-house)
Description: as §1
T2 sequence (P29317 24-537): as above

Row | Binder | Ki [nM]
29 | [βAla][Sar][Sar][Sar][Sar][Sar][Sar][Sar][Sar][Sar][Sar]ACVPDRRCAYMNVC (linker 13-19-25 via TATA) [Bicycle Compound Number 17 (TATA scaffold), (β-Ala)-Sar10-ACVPDRRCAYMNVC] | 85
30 | DLRCGGDPRCAYMNVCA (linker 4-10-16 via TATA) [Bicycle Compound Number 18 (TATA scaffold), DLRCGGDPRCAYMNVCA] | 70.8
31 | ESRCSPDARCAYMNVCA (linker 4-10-16 via TATA) [Bicycle Compound Number 20 (TATA scaffold), ESRCSPDARCAYMNVCA] | 57
32 | ACVPDRRCAYMNVCA (linker 2-8-14 via TATA) [Bicycle Compound Number 16 (TATA scaffold), ACVPDRRCAYMNVCA] | 70
33 | HSGCRPDPRCAYMNVCA (linker 4-10-16 via TATA) [Bicycle Compound Number 21 (TATA scaffold), HSGCRPDPRCAYMNVCA] | 62.1
34 | ACMNDWWCAMGWKCA (linker 2-8-14 via TATA) [Bicycle Compound Number 15 (TATA scaffold), ACMNDWWCAMGWKCA] | 278
35 | SRPCVIDSRCAYMNVCA (linker 4-10-16 via TATA) [Bicycle Compound Number 19 (TATA scaffold), SRPCVIDSRCAYMNVCA] | 94.8
